Measurements: PMC6911355

What was measured:
[1] = target: TDP-43 102-269 (RRM1-RRM2) (human, UniProt Q13148 102-269); test: ALPHA
[2] = target: TDP-43 1-260 (NTD-RRM1-RRM2) (human, UniProt Q13148 1-260); test: ALPHA
TDP-43 1-260 (NTD-RRM1-RRM2), sequence (Q13148 1-260): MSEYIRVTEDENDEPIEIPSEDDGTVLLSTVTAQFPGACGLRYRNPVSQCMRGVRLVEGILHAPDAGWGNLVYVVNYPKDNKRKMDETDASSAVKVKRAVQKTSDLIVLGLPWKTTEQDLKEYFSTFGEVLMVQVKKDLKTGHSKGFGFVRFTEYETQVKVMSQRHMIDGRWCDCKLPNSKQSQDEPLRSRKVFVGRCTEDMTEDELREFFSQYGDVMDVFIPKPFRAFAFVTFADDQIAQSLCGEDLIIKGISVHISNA

TDP-43 102-269 (RRM1-RRM2), sequence (Q13148 102-269): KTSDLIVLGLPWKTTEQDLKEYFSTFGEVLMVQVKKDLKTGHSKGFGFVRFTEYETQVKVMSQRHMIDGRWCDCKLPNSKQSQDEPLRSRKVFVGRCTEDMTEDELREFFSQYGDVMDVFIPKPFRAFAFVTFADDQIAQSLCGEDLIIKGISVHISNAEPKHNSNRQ

UGUGUGUGUGUG (ssRNA) [(UG)6] was tested, and the Kd [1] was 0.73 ± 0.1 nM and the Kd [2] was 0.4 ± 0.04 nM.
